Laboratory results from PMC10998826 (EJNMMI Research, 2024).
Read-outs that look alike come from different tables or passages of the source.

What was measured:
Assay type in all cases: in vivo, humans
Dosimetry of stomach = conditions: for Stomach dose: gastric wall
Method: (§1) Planar whole-body scintigraphy and quantitative SPECT/CT acquisitions of neck/thorax/abdomen/pelvis were acquired with a hybrid SPECT/CT system (Siemens Intevo, Siemens Erlangen, Germany) at 1, 4, 24 and 72 h post injection (p.i.).
A conservative segmentation approach was adopted for gastric dosimetry to ensure that the VOI included all activity distributed in the gastric wall. TACs were analyzed in the same way as for the tumor dosimetry with a mono-exponential model. The average absorbed dose D in the gastric wall was then calculated by using D=N·E/m , where N is the total number of disintegrations, E the average energy deposited in tissue and m = 0.15 kg is the mass of the stomach wall.

Bone marrow dosimetry = conditions: for Bone marrow dose: median
Method: (§2) Bone marrow and kidney dosimetry was performed as described before.

Dosimetry of kidneys = conditions: for Kidney dose: median
Method: as §1
Kidney dosimetry was performed using the dosimetry workflow in the DRT, which includes automatic organ segmentation, time activity curve modelling, and absorbed dose calculation using the medical internal radiation dosimetry (MIRD) method and voxel dosimetry.
After automatic organ segmentation in the 24 h SPECT images, the kidney VOIs were manually corrected to ensure accurate segmentation. Then, the SPECT images at 1, 4 and 72 h where manually co-registered to the 24 h images. Time activity curves were fitted to the measured kidney activity at the four time points using a single exponential function. The calculated and measured data were then used to estimate the absorbed dose in the kidneys using the MIRD method.
as §2

[1] = SPECT/CT based dosimetry of tumors; conditions: human, iv, total radioactivity
Method: Patients were allowed a light breakfast at the day of each infusion. […] Entresto® was given at an oral dose of 100 mg, containing 48.6 mg sacubitril and 51.4 mg valsartan 2 h before the start of one of the two infusions. Vital signs were recorded, and a 12-lead electrocardiogram was obtained before and after each injection. Adverse events were recorded and graded according to Common Terminology Criteria for Adverse Events (CTCAE) version 4.03.
as §1
Calibration of the SPECT/CT camera was performed with a National Institute of Standards and Technology traceable selenium-75 point source (uncertainty in activity 3%) every four weeks. Acquisitions (medium-energy low-penetration collimator) were performed in step and shoot mode using 20 s/view, 64 views/head using a non-circular orbit with a 180° detector configuration in a 128 × 128 matrix. The photo-peak window was set to 208 keV ± 10% (187.2–228.8 keV). Except for the first patient, the quantitative tomographic images (isotropic voxel size 5.08 mm^3) were reconstructed with xSPECT Quant™ (Siemens Healthcare, Siemens Erlangen, Germany) which uses the ordered subset conjugate gradient method (OSCGM) to calculate the quantitative activity distribution. The number of iterations (12, 24 or 60) with one subset and 3D-Gaussian post-filter with full width at half maximum (FWHM) of 16.0 mm and 20.8 mm were selected automatically by the reconstruction algorithm, based on the count statistic. Triple energy window scatter correction, CT-based attenuation correction, and resolution recovery were enabled for all image reconstructions. As the xSPECT Quant™ algorithm was not available at the site initially, images of the first patient were quantitatively reconstructed (isotropic voxel size of 3.9 mm^3) using the OSCGM algorithm with 24 iterations, one subset and a 3D-Gaussian post filter of 10.0 mm FWHM. For these reconstructions, both photo-peak energy windows at 113 keV ± 10% and 208 keV ± 10% were used. All other settings remained as stated above.
At first a VOI with volume V0 and activity A0 enclosing the tumor and its surrounding background was drawn. Subsequently, the threshold was increased until a new VOI with volume Vspect and activity Aspect separating the tumor activity from background was found. The activity in the tumor at the fourth time point can then be estimated by A4=Aspect-A0-Aspect/V0-VspectVspect-VCT, where the second term is the background correction, with the tumor volume VCT determined in the contrast enhanced CT. Spill in and out of activity from the tumor volume into the background was not considered.
Time activity curves (TAC) of the tumors were determined using the mean activity of 3 ml threshold VOIs, drawn in the 1, 4, 24 and 72 h p.i. images. A linear model yt=α+λe·t was fitted to the log-transformed data points to estimate the effective half-life Te=ln2/λe . The activity at the first acquisition is then given by A1=A4·e^λe·Δt where Δt is the time difference between the first and fourth acquisition. The total number of disintegrations can then be estimated by N=A1t1/2+∫t1e^-λet^′dt^′ where t1 is the time of the first acquisition.
The average energy deposition E per disintegration in soft tissue voxels of 3.9 mm^3 and 5.08^3 mm^3 with density ρ=1g/cm^3 was calculated with FLUKA, resulting in the mean tumor dose given by D=N·E/ρ·VCT .
In case the data was not suitable for single exponential fit, N was calculated numerically using trapezoidal integration until the fourth time point and after with analytical integration of the exponential decay using the half-live of Lutetium-177.
The energy distribution in ICRP soft tissue of a Lu-177 point source was calculated with the MC-Simulation toolkit FLUKA version 4.1.0.

[2] = Entresto premedication, eight patients

CSCC[C@H](NC(=O)[C@H](Cc1c[nH]c2ccccc12)NC(=O)CNC(=O)[C@H](Cc1ccc(O)cc1)NC(=O)[C@H](C)NC(=O)[C@@H](CCC(=O)O)NC(=O)[C@@H](CCC(=O)O)NC(=O)[C@@H](CCC(=O)O)NC(=O)[C@@H](CCC(=O)O)NC(=O)[C@@H](CCC(=O)O)NC(=O)[C@@H](CCC(=O)O)NC(=O)CN1CCN(CC(=O)O)CCN(CC(=O)O)CCN(CC(=O)O)CC1)C(=O)N[C@@H](CC(=O)O)C(=O)N[C@@H](Cc1ccccc1)C(N)=O [[^177Lu]Lu-PP-F11N, [^177Lu]Lu-DOTA-(DGlu)6-Ala-Tyr-Gly-Trp-Met-Asp-Phe-NH2, metal not drawn]
Median absorbed dose of stomach after premedication compared to without (Dosimetry of stomach; [2]): 2.1 fold
Stomach dose (Dosimetry of stomach; with Entresto premedication, median): 0.5 Gy/GBq
Stomach dose (Dosimetry of stomach; without Entresto premedication, median): 0.2 Gy/GBq
Stomach dose (Dosimetry of stomach; without Entresto premedication, patient 4): 0.23 Gy/GBq
Stomach dose (Dosimetry of stomach; without Entresto premedication, patient 7): 0.17 Gy/GBq
Median absorbed dose of bone marrow after premedication compared to without (Bone marrow dosimetry; [2]): 1.4 fold
Bone marrow dose (Bone marrow dosimetry; with Entresto premedication): 0.05 Gy/GBq
Bone marrow dose (Bone marrow dosimetry; without Entresto premedication): 0.03 Gy/GBq
Median absorbed dose of kidneys after premedication compared to without (Dosimetry of kidneys; [2]): 2.4 fold
Kidney dose (Dosimetry of kidneys; with Entresto premedication): 0.11 Gy/GBq
Kidney dose (Dosimetry of kidneys; without Entresto premedication): 0.05 Gy/GBq
tissue to tissue ratio ([1]; tumor / bone marrow, 1.08 GBq, without Entresto premedication, patient 4, 2nd tumor, read-out: Tumor-to-bone marrow dose ratio): 1.8
tissue to tissue ratio ([1]; tumor / bone marrow, with Entresto premedication, patient 4, 2nd tumor, read-out: Tumor-to-bone marrow dose ratio): 1.4
tissue to tissue ratio ([1]; tumor / kidney, 1.08 GBq, without Entresto premedication, patient 4, 2nd tumor, read-out: Tumor-to-kidney dose ratio): 1
tissue to tissue ratio ([1]; tumor / kidney, with Entresto premedication, patient 4, 2nd tumor, read-out: Tumor-to-kidney dose ratio): 0.6
tissue to tissue ratio ([1]; tumor / stomach, 1.08 GBq, without Entresto premedication, patient 4, 2nd tumor, read-out: Tumor-to-stomach dose ratio): 0.2
tissue to tissue ratio ([1]; tumor / stomach, with Entresto premedication, patient 4, 2nd tumor, read-out: Tumor-to-stomach dose ratio): 0.1
tissue to tissue ratio ([1]; tumor and bone marrow, 1.08 GBq, without Entresto premedication, patient 7, 2nd tumor, read-out: Tumor-to-bone marrow dose ratio): 15.7
tissue to tissue ratio ([1]; tumor and bone marrow, with Entresto premedication, patient 7, 2nd tumor, read-out: Tumor-to-bone marrow dose ratio): 30.3
tissue to tissue ratio ([1]; tumor and kidney, 1.08 GBq, without Entresto premedication, median, read-out: Tumor-to-kidney dose ratio): 8.3
tissue to tissue ratio ([1]; tumor and kidney, with Entresto premedication, median, read-out: Tumor-to-kidney dose ratio): 7.8
tissue to tissue ratio ([1]; tumor and kidney, with Entresto premedication, patient 7, 2nd tumor, read-out: Tumor-to-kidney dose ratio): 11.2
tissue to tissue ratio ([1]; tumor and stomach, 1.08 GBq, without Entresto premedication, median, read-out: Tumor-to-stomach dose ratio): 1.5
tissue to tissue ratio ([1]; tumor and stomach, with Entresto premedication, median, read-out: Tumor-to-stomach dose ratio): 1.1
tissue to tissue ratio ([1]; tumor and stomach, with Entresto premedication, patient 7, 2nd tumor, read-out: Tumor-to-stomach dose ratio): 1.3
